The values below come from paper PMC5467231, “The signalling receptor MCAM coordinates apical-basal polarity and planar cell polarity during morphogenesis” (Nature Communications, 2017).

The target in this test is T1, recombinant human MCAM/Fc chimera (Sino Biological 10115-H02H) (human, UniProt P43121 24-559).
T1 construct: melanoma cell adhesion molecule (MCAM), human, part fused to Fc; IgG1 Fc served as the control chimera; source: bought: Sino Biological Inc
T1 sequence (looked up): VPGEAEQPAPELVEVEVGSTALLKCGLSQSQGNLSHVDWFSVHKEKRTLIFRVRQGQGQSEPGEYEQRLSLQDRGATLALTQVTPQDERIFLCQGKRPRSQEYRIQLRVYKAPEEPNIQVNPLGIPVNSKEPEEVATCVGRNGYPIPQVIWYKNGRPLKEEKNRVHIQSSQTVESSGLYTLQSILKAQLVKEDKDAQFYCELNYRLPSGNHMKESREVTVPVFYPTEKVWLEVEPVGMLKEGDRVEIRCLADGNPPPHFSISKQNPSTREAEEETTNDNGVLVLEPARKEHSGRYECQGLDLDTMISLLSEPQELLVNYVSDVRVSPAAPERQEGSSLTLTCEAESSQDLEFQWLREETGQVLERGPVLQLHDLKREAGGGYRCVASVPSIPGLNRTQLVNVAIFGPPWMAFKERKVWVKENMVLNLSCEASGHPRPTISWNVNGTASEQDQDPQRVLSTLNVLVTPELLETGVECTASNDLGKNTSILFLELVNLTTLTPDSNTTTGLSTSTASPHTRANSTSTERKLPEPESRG
Description: SPR; Biacore T100, CM5 chip, room temperature, 1x PBS with 0.05% Tween 20; MCAM/Fc, FGFR1/Fc, FGFR2/Fc or IgG1 Fc immobilised by amine coupling, soluble FGF2, FGF4 or FGF8 flowed over; 1:1 binding model. To be noted: both partners purified. (In general: SPR reads the build-up and loss of mass on a sensor chip optically.)

B1: recombinant FGF4 (Peprotech AF-100-31) (ligand, UniProt P08620 31-206, looked up)
chain: APTAPNGTLEAELERRWESLVALSLARLPVAAQPKEAAVQSGAGDYLLGIKRLRRLYCNVGIGFHLQALPDGRIGGAHADTRDSLLELSPVERGVVSIFGVASRFFVAMSSKGKLYGSPFFTDECTFKEILLPNNYNAYESYKYPGMFIALSKNGKTKKGNRVSPTMKVTHFLPRL
notes: fibroblast growth factor 4, recombinant, soluble; also called soluble FGF4; source: bought: Peprotech
The term Kd denotes the equilibrium constant for the complex coming apart. As to B1, the Kd amounted to 0.97 nM.
